Assay [1] deals with 5-TAMRA labeled BAK-BH3 peptide. Put plainly: FLAMBE (fluorescence polarisation). Conditions: BAKTAMRA 50 nM, read at 60 min, read off a plot.
For assay [2], the target named is T1, BAX (Homo sapiens, UniProt Q07812). Put plainly: microscale thermophoresis. The class given is binding. Also noted: recombinant human BAX WT.
The target of assay [3] is T1, BAX. The assay can be described thus: 1H-15N HSQC NMR chemical shift perturbation; MST. In kind it is binding. Also noted: 15N-labeled BAX WT.
For assay [4], the target named is T1, BAX. Put plainly: microscale thermophoresis; also 1H-15N HSQC NMR, FLAMBE, LUV permeabilization. In kind it is binding. Also noted: recombinant human BAX, without a tag or exogenous residues (Alexa Fluor 647-labeled for MST).
Another assay deals with T2, BAX^2S (Homo sapiens, UniProt Q07812, C62S/C126S).
T2 construct: recombinant human BAX, cysteine-replacement mutant
The assay can be described thus: thermal shift, FLAMBE and LUV permeabilization with purified BAX^2S (activation). In kind it is biochemical.

T1 sequence (Q07812 whole entry): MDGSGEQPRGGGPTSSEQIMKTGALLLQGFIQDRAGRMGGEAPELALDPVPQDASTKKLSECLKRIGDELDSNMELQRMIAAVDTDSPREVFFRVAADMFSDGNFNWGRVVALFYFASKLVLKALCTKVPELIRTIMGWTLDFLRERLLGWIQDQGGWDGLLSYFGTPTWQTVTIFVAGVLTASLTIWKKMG
T2 sequence (Q07812 whole entry C62S/C126S): as the sequence (Q07812 whole entry) above, with C62S, C126S counted along it

As for “recombinant human BAX, wild type (from UniProt Q07812) L59C; C62S; C126S; L162C”, the response in assay [1] (BAXα8 225 nM, 2t16 4.5 μM, no BIM-BH3) came to 200 mP; in assay [1] (BAXα8 225 nM, BIM-BH3 0.15 μM, 2t16 4.5 μM) it was 260 mP; in assay [1] (BAXα8 225 nM, BIM-BH3 0.15 μM, no 2t16) it was 260 mP; in assay [1] (BAXα8 225 nM, no BIM-BH3, no 2t16), 200 mP.

As for `CCCCCCCCC/C=C/C=O` [2t12, 2t-dodecenal], the microscale thermophoresis entry at BAX [2] is “When subjected to MST, BAX^WT exhibited altered thermophoresis with each of the alkenals”.

With “recombinant human BAX, wild type (from UniProt Q07812) P168G”, the response in assay [1] (BAXP168G 65 nM, 2t16 3 μM, no BIM-BH3) was 240 mP; in assay [1] (BAXP168G 65 nM, BIM-BH3 0.15 μM, 2t16 3 μM), 300 mP; in assay [1] (BAXP168G 65 nM, BIM-BH3 0.15 μM, no 2t16), 310 mP; in assay [1] (BAXP168G 65 nM, no BIM-BH3, no 2t16), 260 mP.

Regarding `CCCCCCCC/C=C/C=O` [2t11, 2t-undecenal], the microscale thermophoresis entry at BAX [2] was “When subjected to MST, BAX^WT exhibited altered thermophoresis with each of the alkenals”.

As for `CCCCCC/C=C/C=O` [2t9, 2t-nonenal], the “1H-15N HSQC NMR chemical shift perturbation; MST” value on BAX [3] is “nonenal and especially pentenal interacted with several accessible regions of BAX”.

As for `CCCCCCCCCCCCC/C=C/C=O` [2t16, 2-trans-hexadecenal], the EC50 at BAX [4] came to 182 nM. The “thermal shift, FLAMBE and LUV permeabilization with purified BAX^2S (activation)” value at BAX^2S is “BAX^2S remained sensitive to hexadecenal-mediated changes in melting temperature, pore formation, and synergy with BIM‑BH3 peptide”.

These data come from publication PMC13046825, “A gated hydrophobic funnel within BAX binds bioactive lipids to potentiate pro-apoptotic function” (Nature Communications, 2024).
